Where two headings read alike, the source gives them in different places.
T1: TraI36 (F TraI relaxase domain) (Escherichia coli F plasmid (F factor), UniProt P14565 1-330)
T1 sequence: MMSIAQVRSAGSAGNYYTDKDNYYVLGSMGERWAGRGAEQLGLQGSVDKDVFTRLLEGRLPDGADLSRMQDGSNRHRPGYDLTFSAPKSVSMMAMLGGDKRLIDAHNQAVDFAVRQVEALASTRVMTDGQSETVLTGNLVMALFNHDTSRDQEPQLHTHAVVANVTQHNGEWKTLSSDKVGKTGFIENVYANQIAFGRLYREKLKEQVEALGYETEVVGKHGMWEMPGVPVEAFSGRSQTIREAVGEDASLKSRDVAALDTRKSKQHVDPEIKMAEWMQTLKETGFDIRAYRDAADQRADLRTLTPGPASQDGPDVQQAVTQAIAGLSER


Key:
[1] = target: T1, TraI36 (F TraI relaxase domain); test: fluorescence anisotropy and intensity
[2] = target: T1, TraI36 (F TraI relaxase domain); test: competition
[3] = target: T1, TraI36 (F TraI relaxase domain); test: fluorescence anisotropy and intensity; remark: listed apart in the source
[4] = target: T1, TraI36 (F TraI relaxase domain); test: fluorescence dissociation kinetics

| Binder | Kd [1] | other results |
| --- | --- | --- |
| TTTCGGTGGGGTGTGGT (ssDNA) [G151'C/C150'G 17mer] | 390 ± 9 nM |  |
| TTTGCGTGGGCTGTGGT (ssDNA) [G144'C 17mer] |  | binding result [2]: no binding |
| CGAAAAACTTGTTTTTGCGTGGGGTGTGGT (structured_DNA) [G167'C/C166'G Hairpin] |  | Kd [3]: 12 ± 1.8 nM |
| TTTGCGTGGGGTGTGGT (ssDNA) [WT 17mer] | 39 ± 0.8 nM |  |
| CGAAAAACTTGTTTTTCGGTGGGGTGTGGT (structured_DNA) [G167'C/C166'G/G151'C/C150'G Hairpin] | 78 ± 2 nM |  |
| GCAAAAACTTGTTTTTGCGTGGGGTGTGGT (structured_DNA) [WT Hairpin] |  | Kd [3]: 6.8 ± 1.2 nM |
| GCAAAAACTTGTTTTTCGGTGGGGTGTGGT (structured_DNA) [G151'C/C150'G Hairpin] |  | binding result [4]: binds |
| CGTTTTTGTTGTTTTTGCGTGGGGTGTGGT (ssDNA) [No Hairpin] | 16 ± 1 nM |  |
